Reference: IntAct's records for PubMed 26385923

B1: Mitochondrial antiviral-signaling protein (Homo sapiens), Q7Z434 (parent)
chain: MPFAEDKTYKYICRNFSNFCNVDVVEILPYLPCLTARDQDRLRATCTLSGNRDTLWHLFNTLQRRPGWVEYFIAALRGCELVDLADEVASVYQSYQPRTSDRPPDPLEPPSLPAERPGPPTPAAAHSIPYNSCREKEPSYPMPVQETQAPESPGENSEQALQTLSPRAIPRNPDGGPLESSSDLAALSPLTSSGHQEQDTELGSTHTAGATSSLTPSRGPVSPSVSFQPLARSTPRASRLPGPTGSVVSTGTSFSSSSPGLASAGAAEGKQGAESDQAEPIICSSGAEAPANSLPSKVPTTLMPVNTVALKVPANPASVSTVPSKLPTSSKPPGAVPSNALTNPAPSKLPINSTRAGMVPSKVPTSMVLTKVSASTVPTDGSSRNEETPAAPTPAGATGGSSAWLDSSSENRGLGSELSKPGVLASQVDSPFSGCFEDLAISASTSLGMGPCHGPEENEYKSEGTFGIHVAENPSIQLLEGNPGPPADPDGGPRPQADRKFQEREVPCHRPSPGALWLQVAVTGVLVVTLLVVLYRRRLH
partner: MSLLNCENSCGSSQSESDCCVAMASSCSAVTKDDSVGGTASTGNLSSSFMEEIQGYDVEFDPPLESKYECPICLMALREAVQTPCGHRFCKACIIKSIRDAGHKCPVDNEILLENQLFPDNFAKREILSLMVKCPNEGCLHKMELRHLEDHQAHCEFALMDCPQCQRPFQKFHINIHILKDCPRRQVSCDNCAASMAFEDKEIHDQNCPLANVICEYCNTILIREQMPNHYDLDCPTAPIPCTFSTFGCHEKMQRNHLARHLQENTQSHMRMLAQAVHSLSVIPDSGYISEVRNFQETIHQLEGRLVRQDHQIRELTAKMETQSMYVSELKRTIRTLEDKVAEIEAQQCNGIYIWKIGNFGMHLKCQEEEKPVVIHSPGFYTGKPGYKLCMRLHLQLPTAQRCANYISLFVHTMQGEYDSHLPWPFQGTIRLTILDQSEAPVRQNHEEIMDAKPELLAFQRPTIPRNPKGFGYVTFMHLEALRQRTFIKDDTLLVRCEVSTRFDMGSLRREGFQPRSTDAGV

Variants of: B1
Details: with traf6_human TRAF6, Q9Y4K3

| Variant | effect of a mutation on the interaction |
| --- | --- |
| E457A | disrupting interaction strength |
| Y460A | disrupting interaction strength |
| Y460E | decreasing interaction strength |
| P455D | disrupting interaction strength |
